Measurements published in publication PMC10786891, “Massively parallel profiling of RNA-targeting CRISPR-Cas13d”.
Numbering of substitutions follows the chain as printed. Numbers in names are those of the source.

T1: EsCas13d, nuclease-dead (Eubacterium siraeum, UniProt B0MS50, R295A;H300A;R849A;H854A)
T1 sequence: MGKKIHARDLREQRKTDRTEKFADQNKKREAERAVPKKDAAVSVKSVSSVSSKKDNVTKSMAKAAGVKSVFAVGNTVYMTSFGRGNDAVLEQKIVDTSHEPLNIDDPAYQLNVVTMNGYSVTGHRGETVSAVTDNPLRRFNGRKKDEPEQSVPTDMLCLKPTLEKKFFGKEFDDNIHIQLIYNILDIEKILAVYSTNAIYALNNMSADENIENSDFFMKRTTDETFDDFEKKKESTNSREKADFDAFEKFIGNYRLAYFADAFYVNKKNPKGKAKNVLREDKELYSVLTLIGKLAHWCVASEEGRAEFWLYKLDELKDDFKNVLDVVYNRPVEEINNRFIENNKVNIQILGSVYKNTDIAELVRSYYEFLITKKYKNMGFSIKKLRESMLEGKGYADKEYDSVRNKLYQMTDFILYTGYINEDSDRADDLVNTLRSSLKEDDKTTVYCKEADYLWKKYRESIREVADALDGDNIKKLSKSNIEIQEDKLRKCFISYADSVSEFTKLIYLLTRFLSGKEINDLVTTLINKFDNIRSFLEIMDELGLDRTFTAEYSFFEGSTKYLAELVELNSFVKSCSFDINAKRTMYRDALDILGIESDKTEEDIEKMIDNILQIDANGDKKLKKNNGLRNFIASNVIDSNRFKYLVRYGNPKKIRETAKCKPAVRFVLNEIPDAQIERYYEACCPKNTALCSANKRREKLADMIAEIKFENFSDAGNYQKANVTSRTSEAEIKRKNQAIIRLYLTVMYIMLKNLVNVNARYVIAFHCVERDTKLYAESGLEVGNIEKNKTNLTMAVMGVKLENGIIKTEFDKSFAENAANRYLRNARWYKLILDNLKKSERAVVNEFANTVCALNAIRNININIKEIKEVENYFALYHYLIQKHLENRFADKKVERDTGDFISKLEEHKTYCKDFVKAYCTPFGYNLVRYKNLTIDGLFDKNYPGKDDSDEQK

B1: target 1 insU 3' of 20 (mixed)
RNA 1: CACCCGUGCAAAAAUGCAGGGGUCUAAAACUGAGCGGAUAACCUCUCUAUGG
RNA 2: GGGAAUGGAUCCACAUCUACGAAUUCGUACCAUUAGAGAGGUUAUCCGCUCACCGAGAUCGGAAGAGCACACGU
B2: target 1 insC 3' of 13,insC 3' of 9 (mixed)
RNA 1: B1 RNA 1
RNA 2: GGGAAUGGAUCCACAUCUACGAAUUCGUACCAUAGAGAGCGUUACUCCGCUCACCGAGAUCGGAAGAGCACACGU
B3: target 1 insU 3' of 14,insA 3' of 5 (mixed)
RNA 1: B1 RNA 1
RNA 2: B2 RNA 2 with G39U, C40G, C45U, U46C, C48G, G49A
B4: target 1 insC 3' of 9,insG 3' of 7 (mixed)
RNA 1: B1 RNA 1
RNA 2: B2 RNA 2 with C40G, G41U, U43A, A44C, C45U, U46C, C47G
B5: target 1 complement block 3-13 (mixed)
RNA 1: B1 RNA 1
RNA 2: GGGAAUGGAUCCACAUCUACGAAUUCGUACCAUAGAGACCAAUAGGCGACACCGAGAUCGGAAGAGCACACGU
B6: target 1 U10C,G12A (mixed)
RNA 1: B1 RNA 1
RNA 2: GGGAAUGGAUCCACAUCUACGAAUUCGUACCAUAGAGAGAUCAUCCGCUCACCGAGAUCGGAAGAGCACACGU
B7: target 1 C4A,A14C (mixed)
RNA 1: B1 RNA 1
RNA 2: B6 RNA 2 with A38C, A40G, C42U, C48A
B8: target 1 del3,del5 (mixed)
RNA 1: B1 RNA 1
RNA 2: GGGAAUGGAUCCACAUCUACGAAUUCGUACCAUAGAGAGGUUAUCCCCACCGAGAUCGGAAGAGCACACGU
B9: target 1 G5A,C6G (mixed)
RNA 1: B1 RNA 1
RNA 2: B6 RNA 2 with A40G, C42U, C46G, G47A
B10: target 1 A16G,G17A (mixed)
RNA 1: B1 RNA 1
RNA 2: B6 RNA 2 with G35A, A36G, A40G, C42U
B11: target 1 G13U,A14C (mixed)
RNA 1: B1 RNA 1
RNA 2: B6 RNA 2 with A38C, G39U, A40G, C42U
B12: target 1 insA 3' of 7,insC 3' of 5 (mixed)
RNA 1: B1 RNA 1
RNA 2: B2 RNA 2 with C40G, G41U, U43A, A44U, U46A, C48G, G49C
B13: target 1 insU 3' of 21,insU 3' of 2 (mixed)
RNA 1: B1 RNA 1
RNA 2: GGGAAUGGAUCCACAUCUACGAAUUCGUACCUAUAGAGAGGUUAUCCGCUCUACCGAGAUCGGAAGAGCACACGU
B14: target 1 C7A,A16U (mixed)
RNA 1: B1 RNA 1
RNA 2: B6 RNA 2 with A36U, A40G, C42U, C45A
B15: target 1 A9G,U11C (mixed)
RNA 1: B1 RNA 1
RNA 2: B6 RNA 2 with A40G, U41C, C42U, A43G

Each binder was assayed against T1, EsCas13d, nuclease-dead (assay: crRNA (strand 1, pre-loaded); Mg2+; 40 mM Tris-HCl pH 7.5, 150 mM NaCl, 6 mM MgCl2, 1 mM DTT, 0.1% Tween-20, 0.2 mg/ml BSA; 25 C; 10 min per concentration, then washed). Settings: tags: His6-TwinStrep-SUMO cleaved; N-terminal SNAP kept (SNAP-Surface 488); label: 3' end held by stalled T7 RNA polymerase.

Binder	Kd [nM]
B1	10.6 ± 0.6
B2	17.9 ± 1.1
B3	28.7 ± 3
B4	11.4 ± 0.7
B5	62 ± 7
B6	13.8 ± 0.6
B7	11.9 ± 1.3
B8	15.8 ± 0.9
B9	8 ± 0.4
B10	84 ± 30
B11	10.8 ± 0.7
B12	11.1 ± 0.5
B13	38 ± 4
B14	42.2 ± 2.5
B15	12.1 ± 0.5
